Test [1] deals with T1, human PD-1-mFc-biotin (human, UniProt Q15116 25-170, limits assumed, biotin label, site not stated). Description: competitive ELISA, competitor coated PD-L1-mFc; antibody 5 ug/mL diluted 1:3. The protocol:
(§1) After incubation, the microplate was blocked with a PBS solution containing 1% BSA at 37° C. for 2 h. After blocking, the plate was washed three times and dried. The antibody was serially diluted to 7 concentrations in a gradient ratio of 1:3 on a dilution plate with 10 μg/mL as the starting concentration, and a blank control was set. […] Then the mixture after reaction was added to the coated microplate, and the microplate was incubated for at 37° C. for 30 min. After incubation, the plate was washed three times with PBST and dried. SA-HRP (KPL, 14-30-00) working solution was added, and the plate was incubated at 37° C. for 30 min. After incubation, the plate was washed four times and patted dry. Then TMB (Neogen, 308177) was added in the dark for chromogenesis for 5 min, and a stop solution was added to terminate chromogenic reaction. Then the microplate was put into a microplate reader immediately, and the OD value of each well in the microplate was read at 450 nm. The data were analyzed and processed by SoftMax Pro 6.2.1.
In general terms: In an ELISA, binding on a coated surface is turned into a signal by an enzyme label.

Another test deals with T2, human NT5E(1-552)-his (human, UniProt P21589 27-552).
T2 construct: The entry starts at Met 1
T2 sequence: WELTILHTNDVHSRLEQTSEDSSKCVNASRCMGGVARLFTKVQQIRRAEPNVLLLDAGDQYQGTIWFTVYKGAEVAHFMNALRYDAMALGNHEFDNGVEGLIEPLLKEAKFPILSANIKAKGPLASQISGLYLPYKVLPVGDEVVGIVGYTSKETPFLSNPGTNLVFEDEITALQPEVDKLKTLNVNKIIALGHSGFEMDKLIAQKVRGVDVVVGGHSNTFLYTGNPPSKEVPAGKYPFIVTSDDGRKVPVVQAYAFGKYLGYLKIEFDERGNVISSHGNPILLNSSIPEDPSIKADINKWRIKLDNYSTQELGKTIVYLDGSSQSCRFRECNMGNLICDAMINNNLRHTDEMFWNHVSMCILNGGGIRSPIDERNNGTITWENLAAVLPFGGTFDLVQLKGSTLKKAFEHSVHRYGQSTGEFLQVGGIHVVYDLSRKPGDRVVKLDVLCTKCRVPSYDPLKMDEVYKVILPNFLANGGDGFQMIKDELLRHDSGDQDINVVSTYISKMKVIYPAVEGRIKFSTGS
In words: BLI (Fortebio), antibody on Protein A sensor, NT5E(1-552)-his 3.125-200 nM, 37 C. The protocol: The sample dilution buffer was PBST, pH 7.4. The antibody was immobilized on a Protein A sensor at a concentration of 5 μg/mL with the immobilization time of about 15 s. […] The protein was dissociated in the buffer for 600 s. The sensor was refreshed with 10 mM Gly solution, pH 1.5. The detection temperature was 37° C., the detection frequency was 0.6 Hz, and the sample plate shaking rate was 1000 rpm. The data were analyzed by 1:1 model fitting to obtain affinity constants.
On the technique in general: In BLI a coated tip is dipped into the sample, and binding shifts an interference pattern.

The next test concerns the target T3, PD-1-mFc (human, UniProt Q15116 25-170, limits assumed).
T3 construct: also called human PD-1-mFc
In words: BLI (Fortebio), antibody on AHC sensor, PD-1-mFc 0.6-50 nM, 37 C. The protocol:
The sample dilution buffer was PBST, 0.1% BSA, pH 7.4. The antibody was immobilized on an AHC sensor at a concentration of 5 μg/mL with an immobilization height of about 0.4 nm. The sensor was equilibrated in a buffer for 60 s, and the binding of the immobilized antibody on the sensor to the antigen PD-1-mFc at concentrations of 0.6-50 nM (three-fold dilution) was determined in 120 s. The protein was dissociated in the buffer for 180 s. The detection temperature was 37° C., the detection frequency was 0.3 Hz, and the sample plate shaking rate was 1000 rpm. The data were analyzed by 1:1 model fitting to obtain affinity constants.

Test [2] concerns the target T1, human PD-1-mFc-biotin. In words: competitive ELISA, competitor coated PD-L1-mFc; antibody 5 ug/mL. The protocol:
as §1

T3 sequence (Q15116 other isoform, or with tags, fused parts or gaps limits assumed): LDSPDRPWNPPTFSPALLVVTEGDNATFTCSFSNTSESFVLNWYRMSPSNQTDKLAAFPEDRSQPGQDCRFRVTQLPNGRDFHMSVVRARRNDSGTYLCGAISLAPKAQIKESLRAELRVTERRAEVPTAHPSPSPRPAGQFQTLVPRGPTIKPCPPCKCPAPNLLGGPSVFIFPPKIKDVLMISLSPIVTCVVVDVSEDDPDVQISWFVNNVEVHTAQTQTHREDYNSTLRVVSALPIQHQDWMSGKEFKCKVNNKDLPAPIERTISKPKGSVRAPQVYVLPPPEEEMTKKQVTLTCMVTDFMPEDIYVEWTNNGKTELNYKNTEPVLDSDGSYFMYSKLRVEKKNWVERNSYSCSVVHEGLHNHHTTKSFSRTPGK
T1 sequence (Q15116 other isoform, or with tags, fused parts or gaps limits assumed): as above

B1: P1D7V01 (bispecific antibody, human IgG1, kappa)
heavy: not shown
light: DIQMTQSPSSMSASVGDRVTFTCRASQDINTYLSWFQQKPGKSPKTLIYRANRLVSGVPSRFSGSGSGQDYTLTISSLQPEDMATYYCLQYDEFPLTFGAGTKLELKRTVAAPSVFIFPPSDEQLKSGTASVVCLLNNFYPREAKVQWKVDNALQSGNSQESVTEQDSKDSTYSLSSTLTLSKADYEKHKVYACEVTHQGLSSPVTKSFNRGEC
notes: Morrison form IgG-scFv
The molecule B1 registered an OD450 with human PD-1-mFc-biotin [1] of 0.05 OD. Moreover, in the test with human NT5E(1-552)-his, the affinity, expressed as Kd, was 0.229 nM; the koff turned out to be 4.13e-05 s⁻¹; the kon is 181000 M⁻¹ s⁻¹. In the test with PD-1-mFc, this molecule gave a Kd of 0.176 nM, a koff of 7.37e-05 s⁻¹ and a kon of 419000 M⁻¹ s⁻¹.

B2: P1D7V03 (bispecific antibody, human IgG1, kappa)
heavy: not shown
light: DIQMTQSPSSMSASVGDRVTFTCRASQDINTYLSWFQQKPGKSPKTLIYRANRLVSGVPSRFSGSGSGQDYTLTISSLQPEDMATYYCLQYDEFPLTFGAGTKLELKRTVAAPSVFIFPPSDEQLKSGTASVVCLLNNFYPREAKVQWKVDNALQSGNSQESVTEQDSKDSTYSLSSTLTLSKADYEKHKVYACEVTHQGLSSPVTKSFNRGEC
notes: Morrison form IgG-scFv
As to B2, the OD450 with human PD-1-mFc-biotin [2] is 0.048 OD.

In general, Kd refers to the free concentration of one partner at which half of the binding sites on the other are occupied at equilibrium, for simple one-to-one binding. As a reminder, the koff is the rate constant with which the complex falls apart. Low readings indicate slow dissociation, high ones fast dissociation. For orientation: kon means the second-order rate constant of association.

The values are drawn from patent US20230151111A1 (AKESO BIOPHARMA, published 2023).
